{"source": "paper PMC4175327", "target": "human beta2-microglobulin (hβ2m), monomer (human) (UniProt P61769)", "sequence (P61769 21-119)": "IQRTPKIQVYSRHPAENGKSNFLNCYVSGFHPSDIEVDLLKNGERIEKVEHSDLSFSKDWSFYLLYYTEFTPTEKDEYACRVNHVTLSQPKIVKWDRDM", "test": "SPR", "conditions": "2'-fluoro C and U; 50 mM MES, 120 mM NaCl, pH 6.2; fluorescence and NMR at 25 °C (NMR plus 0.02% azide, 0.1 mM EDTA, 10% D2O); SPR temperature not stated"}
{"sequence": "GGGAAUGGAUCCACAUCUACGAAUUCUGAGCUACUCCCUUUUGGGCCCGGCUAUGAUUCACUGCAGACUUGACGAAGCUU [2'F B6 (full-length aptamer, 110 nt)]", "values": [{"measurement": "Kd", "value": 500, "unit": "nM"}]}
